Measured values published in patent US20140147444A1 (published 2014).
Substitutions are numbered along the chain they refer to. In names and notes the source's numbering stands. Several values for one entry are separate records, joined by “and”; a condition that tells them apart may be missing. Equal values may be shown once.

T1: soluble ODAR-Fc fusion (FLAG-human ODAR extracellular domain-human Fc) (human, UniProt Q9Y6Q6 30-212)
T1 construct: extracellular domain; also called sODAR-Fc; not shown: amino terminal FLAG tag; carboxy terminal human Fc region
T1 sequence (looked up): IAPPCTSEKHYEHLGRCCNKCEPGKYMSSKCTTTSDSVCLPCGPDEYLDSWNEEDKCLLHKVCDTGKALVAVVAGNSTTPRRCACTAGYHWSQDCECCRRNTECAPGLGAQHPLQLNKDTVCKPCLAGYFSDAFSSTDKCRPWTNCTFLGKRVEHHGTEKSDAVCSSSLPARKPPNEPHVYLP

B1: Fab “S” (Fab, V domains shown)
VH: EVQLLESGGGLVQPGRSLRLSCAASGFTFDDYAMHWVRQAPGKGLEWVSGISWNSGRIGYADSVKGRFTISRDNAKNSLYLQMNSLRPEDTAFYYCAKGGSTSARYSSGWYYWGQGTLVTVSS
VL: QSVLTQPPSVSVSPGQTATITCSGDALPKQYVYWYRQKPGQAPLLVIYEDSERPSGIPERFSGSSSGTEVTLSISGVQAEDEADYYCQSTDSSGTYVVFGGGTKLTVLS
notes: also called Fab pattern “S”
B2: human OPGbp [143-317] (ligand, UniProt O14788 143-317, looked up)
chain: EKAMVDGSWLDLAKRSKLEAQPFAHLTINATDIPSGSHKVSLSSWYHDRGWAKISNMTFSNGKLIVNQDGFYYLYANICFRHHETSGDLATEYLQLMVYVTKTSIKIPSSHTLMKGGSTKYWSGNSEFHFYSINVGGFFKLRSGEEISIEVSNPSLLDPDQDATYFGAFKVRDID
notes: also called OPGL
B3: human OPG [22-194]-Fc (Fc fusion, UniProt O00300 22-194, looked up, not shown: a dimerising Fc or GST)
chain: ETFPPKYLHYDEETSHQLLCDKCPPGTYLKQHCTAKWKTVCAPCPDHYYTDSWHTSDECLYCSPVCKELQYVKQECNRTHNRVCECKEGRYLEIEFCLKHRSCPPGFGVVQAGTPERNTVCKRCPDGFFSNETSSKAPCRKHTNCSVFGLLLTQKGNATHDNICSGNSESTQK
B4: Fab “AT” (Fab, V domains shown)
VH: QVQLVQSGAEVRKPGASVKVSCKASGYDFSNYAIHWVRQAPGQRLEWMGWINAGNGNTKFSQKFQGRITVTRDTAASTAYMELRSLRSEDTAVYYCARDSSNMVRGIIIAYYFDYWGQGTLVTVSS
VL: EIVMTQSPSSLSASVGDRVTITCRASQSISRYLNWYQLKPGKAPRLLIYGASSLQSGVPSRFSGSGSGAEFTLTISSLQPEDIATYYCQHTRAFGQGTKVEIKR
notes: Soluble Fab from E. coli periplasm purified on Talon resin; also called soluble Fab “AT”; Fab pattern “AT”
B5: Fab “Y” (Fab, V domains shown)
VH: B4 VH with Q1E
VL: EIVLTQSPATLSFSPGERATLSCRASQSVGSYLAWYQQRPGQAPRPLIYDATNRATGIPTRFSGSGSGTDFTLTISSLEPEDFATYYCQHRRTFGRGTKLEIKR
notes: also called soluble Fab “Y”; Fab pattern “Y”
B6: “AT” Fab variant I(100c)A (heavy chain CDR3) (Fab, name in Kabat numbering, V domains shown)
VH: B4 VH with I107A
VL: B4 VL
B7: “AT” Fab variant I(100e)A (heavy chain CDR3) (Fab, name in Kabat numbering, V domains shown)
VH: B4 VH with I109A
VL: B4 VL
B8: “AT” Fab variant S96A (heavy chain CDR3) (Fab, name in Kabat numbering, V domains shown)
VH: B4 VH with S100A
VL: B4 VL
B9: “AT” Fab variant R(100a)A (heavy chain CDR3) (Fab, name in Kabat numbering, V domains shown)
VH: B4 VH with R105A
VL: B4 VL
B10: “AT” Fab variant N98A (heavy chain CDR3) (Fab, name in Kabat numbering, V domains shown)
VH: B4 VH with N102A
VL: B4 VL
B11: “AT” antibody variant S96A, S97A (heavy chain CDR3) (antibody, name in Kabat numbering, V domains shown)
VH: B4 VH with S100A, S101A
VL: B4 VL
notes: not shown: human IgG1 CH1, hinge, CH2 and CH3
B12: “AT” Fab variant S97A (heavy chain CDR3) (Fab, name in Kabat numbering, V domains shown)
VH: B4 VH with S101A
VL: B4 VL
B13: “AT” Fab variant Y(100g)A (heavy chain CDR3) (Fab, name in Kabat numbering, V domains shown)
VH: B4 VH with Y111A
VL: B4 VL
B14: “AT” antibody variant S96A, N98A (heavy chain CDR3) (antibody, name in Kabat numbering, V domains shown)
VH: B4 VH with S100A, N102A
VL: B4 VL
notes: as for B11
B15: “AT” Fab variant D95A (heavy chain CDR3) (Fab, name in Kabat numbering, V domains shown)
VH: B4 VH with D99A
VL: B4 VL
B16: “AT” Fab variant V100A (heavy chain CDR3) (Fab, name in Kabat numbering, V domains shown)
VH: B4 VH with V104A
VL: B4 VL
B17: “AT” antibody variant S97A (heavy chain CDR3) (antibody, name in Kabat numbering, V domains shown)
VH: B4 VH with S101A
VL: B4 VL
notes: as for B11
B18: “AT” Fab variant I(100d)A (heavy chain CDR3) (Fab, name in Kabat numbering, V domains shown)
VH: B4 VH with I108A
VL: B4 VL
B19: “AT” antibody variant S96A, S97A, N98A (heavy chain CDR3) (antibody, name in Kabat numbering, V domains shown)
VH: B4 VH with S100A, S101A, N102A
VL: B4 VL
notes: as for B11
B20: “AT” Fab variant Y(100h)A (heavy chain CDR3) (Fab, name in Kabat numbering, V domains shown)
VH: B4 VH with Y112A
VL: B4 VL
B21: “AT” antibody variant S97A, N98A (heavy chain CDR3) (antibody, name in Kabat numbering, V domains shown)
VH: B4 VH with S101A, N102A
VL: B4 VL
notes: as for B11
B22: “AT” Fab variant G(100b)A (heavy chain CDR3) (Fab, name in Kabat numbering, V domains shown)
VH: B4 VH with G106A
VL: B4 VL
B23: “AT” antibody variant S96A (heavy chain CDR3) (antibody, name in Kabat numbering, V domains shown)
VH: B4 VH with S100A
VL: B4 VL
notes: as for B11
B24: “AT” Fab variant M99A (heavy chain CDR3) (Fab, name in Kabat numbering, V domains shown)
VH: B4 VH with M103A
VL: B4 VL

Experiments:
human OPGbp [143-317] [1] = target: B2; assay: phage ELISA on plated OPGbp [143-317]
[2] = target: T1, soluble ODAR-Fc fusion (FLAG-human ODAR …); assay: FRET competition, unlabelled OPGbp against OPGbp-Eu on sODAR-Fc, in PBS (positive control)
Procedure: (§1) A 1 hour preincubation with OPGbp was added for increased sensitivity. A soluble extracellular domain of human ODAR was constructed as a fusion polypeptide with an amino terminal FLAG tag and a carboxy terminal human Fc region. The Fc region is recognized and bound by a polyclonal goat anti-human Fc specific allophycocyanin (APC) which is detected by […] at 665 nm. […] Binding of OPGbp to ODAR in this assay triggers a fluorescent energy transfer and is highly sensitive for competition curves. A decrease in the A665/A620 absorbance ratio indicates inhibition of OPGbp binding to ODAR.
(§2) The Fab “Y” clone 1B4 was from the predominant 9 member pattern from one 96-well plate (all with same amino acid sequence) from the optimized plated OPGbp screen using a 1 μM OPGbp elution for 90 min. […] Similar IC50's were obtained with the duplicate preparations “A” and “B”.

[3] = target: T1, soluble ODAR-Fc fusion (FLAG-human ODAR …); assay: FRET competition, unlabelled OPGbp against OPGbp-Eu on sODAR-Fc, in TBS (positive control)
Procedure: as §1, §2

human OPGbp [143-317] [4] = target: B2; assay: cell-based or functional assay
human OPGbp [143-317] [5] = target: B2; assay: SPR (BIAcore), immobilized OPGbp [143-317]
human OPGbp [143-317] [6] = target: B2; assay: FRET competition, inhibition of OPGbp-Eu binding to sODAR-Fc, in TBS
Procedure: as §1, §2

human OPGbp [143-317] [7] = target: B2; assay: SPR (BIAcore), OPGbp on CM5 chip
Procedure: The binding constant (Kd), on rate constant (ka) and off rate constant (kd) for Fabs “AT” and “Y” and “AT” antibody were determined by surface plasmon resonance techniques (BIAcore, Pharmacia, Piscataway, N.J.) and the results are shown in Table II. Fabs were prepared as described in Example 4 and “AT” antibody prepared as described in Example 7. OPGbp was immobilized on a CM5-chip by standard amine coupling. The Kd and rate constants were determined by BIAEVALUATION 3.0 software (Pharmacia).

human OPGbp [143-317] [8] = target: B2; assay: FRET competition, inhibition of OPGbp-Eu binding to sODAR-Fc
Procedure: as §1, §2

human OPGbp [143-317] [9] = target: B2; assay: FRET competition, inhibition of OPGbp-Eu binding to sODAR-Fc, in PBS
Procedure: as §1, §2

human OPGbp [143-317] [10] = target: B2; assay: SPR (BIAcore), immobilized OPGbp [143-317]; remark: listed apart in the source

Binder: B1
binding result (human OPGbp [143-317] [1]): binds

Binder: B2
IC50 [2]: 0.93 nM | IC50 [3]: 0.89 nM

Binder: B3
RAW cell assay, IC50, positive control (human OPGbp [143-317] [4]): 33 ng/mL

Binder: B4
koff (human OPGbp [143-317] [5]): 0.284 s⁻¹ | IC50 (human OPGbp [143-317] [6]): 354 nM | Kd (human OPGbp [143-317] [7]): 140 nM | koff (human OPGbp [143-317] [7]): 0.31 s⁻¹ | kon (human OPGbp [143-317] [7]): 2.2e+06 M⁻¹ s⁻¹ | RAW cell assay (TRAP, OD405), IC50 (human OPGbp [143-317] [4]): 15 µg/ml and 300 nM | murine bone marrow assay, TRAP activity in solution (pNPP), 50% decrease (IC50) (human OPGbp [143-317] [4]): 57.8 nM | IC50 (human OPGbp [143-317] [8]): 0.55 µM | IC50 (human OPGbp [143-317] [9]): 440 nM

Binder: B5
IC50 (human OPGbp [143-317] [6]): 4100 nM | Kd (human OPGbp [143-317] [7]): 594 nM | koff (human OPGbp [143-317] [7]): 0.00591 s⁻¹ | kon (human OPGbp [143-317] [7]): 9440 M⁻¹ s⁻¹ | IC50 (human OPGbp [143-317] [8]): 6 µM

Binder: B6
koff (human OPGbp [143-317] [5]): 0.53 s⁻¹

Binder: B7
koff (human OPGbp [143-317] [5]): 0.0069 s⁻¹

Binder: B8
koff (human OPGbp [143-317] [5]): 0.0072 s⁻¹

Binder: B9
koff (human OPGbp [143-317] [5]): 0.303 s⁻¹

Binder: B10
koff (human OPGbp [143-317] [5]): 0.012 s⁻¹

Binder: B11
Kd (human OPGbp [143-317] [10]): 8.9 nM | koff (human OPGbp [143-317] [10]): 0.00284 s⁻¹ | kon (human OPGbp [143-317] [10]): 317000 M⁻¹ s⁻¹

Binder: B12
koff (human OPGbp [143-317] [5]): 0.0062 s⁻¹

Binder: B13
koff (human OPGbp [143-317] [5]): 0.074 s⁻¹

Binder: B14
binding result (human OPGbp [143-317] [10]): no binding

Binder: B15
binding result (human OPGbp [143-317] [5]): no binding

Binder: B16
koff (human OPGbp [143-317] [5]): 0.261 s⁻¹

Binder: B17
Kd (human OPGbp [143-317] [10]): 2.9 nM | koff (human OPGbp [143-317] [10]): 0.0015 s⁻¹ | kon (human OPGbp [143-317] [10]): 530000 M⁻¹ s⁻¹

Binder: B18
koff (human OPGbp [143-317] [5]): 0.622 s⁻¹

Binder: B19
binding result (human OPGbp [143-317] [10]): no binding

Binder: B20
koff (human OPGbp [143-317] [5]): 0.368 s⁻¹

Binder: B21
binding result (human OPGbp [143-317] [10]): no binding

Binder: B22
koff (human OPGbp [143-317] [5]): 0.657 s⁻¹

Binder: B23
Kd (human OPGbp [143-317] [10]): 2.5 nM | koff (human OPGbp [143-317] [10]): 0.00064 s⁻¹ | kon (human OPGbp [143-317] [10]): 260000 M⁻¹ s⁻¹

Binder: B24
koff (human OPGbp [143-317] [5]): 1.12 s⁻¹
